B1: HDV Ribozyme (parent)
chain: GGCCGGCAUGGUCCCAGCCUCCUCGCUGGCGCCGGCUGGGCAACAUUCCGAGGGGACCGUCCCCUCGGUAAUGGCGAAUGGGACCCA

In the data set the parent is B1. Put plainly: self-cleavage, relative activity (ratio to wild type); higher = more cleavage; co-transcriptional.
For the variant GGCCGGCAUGGUCCCAGCCUCCUCGCUGGCGCCGGCUGGGCACCAUUCCGAGGGGACCGUCCCCUCGGUUAUGGCGAAUGGGACCCA, the self-cleavage amounted to 0.322.
Under GGCCGGCAUGGUCCCAGCCUCCUCGCUGGCGCCGGCUGGGCAACAUUCCGAGGGGACCGUCCCCUCGGUAAAGGGGAAUGGGACCCA stands 0.119; under GGCCGGCAUGGUCCCAGCCUCCUCGCUGGCGCCGGCUGGGCAACAUUCCGAGGGGACCGGCCCCUCGGUAAUGGCCAAUGGGACCCA, 1.09.
Under GGCCGGCAUGCUACCAGCCUCCUCGCUGGCGCCGGCUGGGCAACAUUCCGAGGGGACCGUCCCCUCGGUAAUGGCGAAUGGGACCCA stands 0.142.
Then GGCCGUCAUGGUCCCAGCCUCCUCGCUGGCGCCGGCUGGGCAACAUUCCGAGGGGACCGUCCCCUCGGUAUUGGCGAAUGGGACCCA, with 0.415; and GGCCGGCAUGGUCCCAGCCUCCUCCCUGGCGCCGGCUGGGCAACAUUCCGAGGGGACCGUCCCCUCGUUAAUGGCGAAUGGGACCCA, with 0.161.
For UGCCGGCAUGGUCCCAGCCUCCUCGCUGGCGCCGACUGGGCAACAUUCCGAGGGGACCGUCCCCUCGGUAAUGGCGAAUGGGACCCA, the self-cleavage was 0.192.
Then GGCCGGCAUGGUCCCAGCCUCCUCGCUGGCGCCGGCUGGGCAACAUUCCGAGGGGACCGACCCCUCGGUAAUGGAGAAUGGGACCCA, with 0.0811; and GGCCGGCAUGGUCGCAGCCUCCUCGCUGGCGCCGGCUGGGCAACAUUCCGAGGGGACCGUCCCCUCGGUAAUUGCGAAUGGGACCCA, with 0.0755; and GGCCGAGAUGGUCCCAGCCUCCUCGCUGGCGCCGGCUGGGCAACAUUCCGAGGGGACCGUCCCCUCGGUAAUGGCGAAUGGGACCCA, with 0.208.
Under GGCCGGCAUGGUCCCAGCCUCCUCGCUGGCGCCGGCUGGGCAACAUUCAGAGGGGACCGUCCCCUCGGUAAUAGCGAAUGGGACCCA stands 0.314; under GGCCGGCAUGGUCCCAGCCUCCUCGCUGGCGCCGGCUGGGCAACAUUCCGAGGGGACCGUCCCCUCGGUAAUGCCGACUGGGACCCA, 0.185; under GGCCGGCAUGGUCCCAGCCUCCUCGCUGGCGCCGGCUGGGCAACAUUCCGAGGGGACCGUCCCCUCGGUACUGGCGAAUGGGACACA, 0.578.
Then AGCCGGCAUGGUCCCAGCCUCCUCGCUGGCGCCGGCUGUGCAACAUUCCGAGGGGACCGUCCCCUCGGUAAUGGCGAAUGGGACCCA, with 0.135; and GGCCGGCAUGGUCCCAGCCUCCACGCUGGCGCCGGCUGGGCAACAUUCCGAGGGGACCGUCCCCUCGGUAAUGGCGAAGGGGACCCA, with 0.665; and GGCCGGCAUGGUCCCAGCCUCCUCGCUGGCGCCGGCUGGGCAACCUUUCGAGGGGACCGUCCCCUCGGUAAUGGCGAAUGGGACCCA, with 0.642.
In the case of GGCCGGCAUGGUCCCAGCCUCCUCGCUGGCGCCGGCUGGGCAACAUUCCGAGGGGACCGGCCCCUCGGUAAUGGCGAAUGGAACCCA, the self-cleavage is 0.6.
Under GGCCGGCAUGGUCCCAGCCUCCUCGCUGGCGCCGGCUGGGCAACAUUCCGAAGGGACCGUCCCCUCGGUAAUGGCGAGUGGGACCCA stands 0.604; under GGCCGGCAUGGUCCCAGCCUCCUCGCUGGCGCCGGCUGUGCAACAUUCCGAGGGGACCGUCCCCUCGGUAAUGGCGAAUGAGACCCA, 0.228; under GGCCGUCAUGGUCCCAGCCUCCUCGCUGGCGCCGGCUGGGCCACAUUCCGAGGGGACCGUCCCCUCGGUAAUGGCGAAUGGGACCCA, 0.
Consider GGCCGGCAUGGUCCCAGCCUCCUCGCUGGCGCCGGCUGGGCAACAUUGCGAGGGGACCGUCCCCUCGGUAAUGGCGAAUGGCACCCA, for which the self-cleavage came out at 0.111.
Under GGCUGGCAUGGUCCCAGCCUCCUCGCGGGCGCCGGCUGGGCAACAUUCCGAGGGGACCGUCCCCUCGGUAAUGGCGAAUGGGACCCA stands 0.453; under GGCCGGCAUGGUCCCAGCCUCCUCGCUAGCGCCGGCAGGGCAACAUUCCGAGGGGACCGUCCCCUCGGUAAUGGCGAAUGGGACCCA, 0.0773.
Consider GGCCGGCAUGGACCCAGCCUCCUCGCUGGCGCCGGCUGGGCAACAUUCCGAGGGGACCGUCCCCUCGGUAAUGUCGAAUGGGACCCA, for which the self-cleavage was found to be 0.101.
Under GGCCGGCAUGGUCCCAGCCUCCUCGCUGGCGCCAGCUGGGCAACAUUCCGAGGGCACCGUCCCCUCGGUAAUGGCGAAUGGGACCCA stands 0.141; under GGCCGGCAUGGACCCAGCCUCCUCGCUGGCGCCGGCUGGGCAACAUUCAGAGGGGACCGUCCCCUCGGUAAUGGCGAAUGGGACCCA, 0.128.
Then GGCCGGCAUGGUCCCAGCUUCCUCGCUGGCGCCGGCUGGGCAAAAUUCCGAGGGGACCGUCCCCUCGGUAAUGGCGAAUGGGACCCA, with 0; and GGCCGGCAUGGUCCCAGCCUCCUCGCUGGCGCCGGCUGGGCAACAUUCCGAGGGGACCGUCCCCUCGGUAAUGGCGAAAGGGACCUA, with 1.02.
Under GGCCGGCAUGGUCCCAGCCUCCUCGCUGGCGCCGGCUGGGCAGCAUUCCGAGGUGACCGUCCCCUCGGUAAUGGCGAAUGGGACCCA stands 0.514.
For the variant GGCCGGCAUGGUCCCAGCCUCCUCGCUGGCGCCGGCUGGGCAACAUUCCGAGGGGAACGUCCCCUCGGGAAUGGCGAAUGGGACCCA, the self-cleavage came to 0.675.
Turning to GGCCGGCAUGGUCCCAGCCUCCUCGCUGGCGCCGGCUGGGCAACAUUCCGAGGGGACCGUCCCCUCGGUGAUGGCGGAUGGGACCCA, the self-cleavage turned out to be 0.831.
Under GGCCGGCAUGGUCCCAGCCUCCUCGCUUGCUCCGGCUGGGCAACAUUCCGAGGGGACCGUCCCCUCGGUAAUGGCGAAUGGGACCCA stands 0.0923.
